Common to all, as to test: virus attachment assay at 4° C. on transfected L929 cells, immunostaining, Mander's co-localization coefficient
The target of experiment [1] is human tryptophanyl-tRNA synthetase (hWARS) on cells (human) (UniProt P23381).
For experiment [2], the target named is human P-selectin glycoprotein ligand-1 (hPSGL1) on L929 cells (human) (UniProt Q14242).
For experiment [3], the target named is human scavenger receptor class B member 2 (hSCARB2) on L929 cells (human) (UniProt Q14108).
Sequence of UniProt Q14108 (Q14108 whole entry): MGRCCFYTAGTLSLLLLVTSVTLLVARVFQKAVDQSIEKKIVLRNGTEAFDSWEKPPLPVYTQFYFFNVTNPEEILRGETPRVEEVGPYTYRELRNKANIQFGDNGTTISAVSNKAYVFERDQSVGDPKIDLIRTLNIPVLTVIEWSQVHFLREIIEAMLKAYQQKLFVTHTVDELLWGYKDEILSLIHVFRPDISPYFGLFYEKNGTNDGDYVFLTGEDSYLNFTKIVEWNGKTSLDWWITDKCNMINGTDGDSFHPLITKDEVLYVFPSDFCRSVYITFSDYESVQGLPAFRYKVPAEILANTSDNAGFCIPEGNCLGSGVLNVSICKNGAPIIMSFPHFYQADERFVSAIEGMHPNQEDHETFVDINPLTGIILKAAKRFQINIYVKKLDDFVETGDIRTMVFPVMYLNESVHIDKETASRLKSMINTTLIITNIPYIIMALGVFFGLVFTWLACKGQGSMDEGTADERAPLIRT

Sequence of UniProt Q14242 (Q14242 42-412): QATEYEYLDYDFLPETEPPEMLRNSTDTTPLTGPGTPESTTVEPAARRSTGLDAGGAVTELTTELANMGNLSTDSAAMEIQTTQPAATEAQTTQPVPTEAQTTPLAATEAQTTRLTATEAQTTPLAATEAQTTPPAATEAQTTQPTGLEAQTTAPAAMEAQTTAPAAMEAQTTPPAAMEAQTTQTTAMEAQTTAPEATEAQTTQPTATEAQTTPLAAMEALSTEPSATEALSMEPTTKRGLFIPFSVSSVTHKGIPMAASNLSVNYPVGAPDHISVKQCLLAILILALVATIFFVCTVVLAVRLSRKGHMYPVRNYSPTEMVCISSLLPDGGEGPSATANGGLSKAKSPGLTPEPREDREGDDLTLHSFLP
Sequence of UniProt P23381 (P23381 2-471): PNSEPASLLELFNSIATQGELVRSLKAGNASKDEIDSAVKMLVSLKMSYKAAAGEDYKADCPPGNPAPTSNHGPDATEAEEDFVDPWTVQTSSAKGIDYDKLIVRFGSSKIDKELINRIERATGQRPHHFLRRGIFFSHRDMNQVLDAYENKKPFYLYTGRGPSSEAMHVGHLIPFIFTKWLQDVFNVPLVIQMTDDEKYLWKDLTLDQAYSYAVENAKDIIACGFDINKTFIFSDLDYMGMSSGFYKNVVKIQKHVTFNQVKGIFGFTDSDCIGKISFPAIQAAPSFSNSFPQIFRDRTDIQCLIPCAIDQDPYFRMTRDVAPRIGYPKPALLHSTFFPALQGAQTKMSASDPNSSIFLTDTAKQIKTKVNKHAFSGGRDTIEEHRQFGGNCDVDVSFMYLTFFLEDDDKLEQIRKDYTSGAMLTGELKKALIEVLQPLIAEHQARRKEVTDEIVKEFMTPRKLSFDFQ

In the case of enterovirus 71 (EV-A71) virus, the figures for the co-localization coefficient (R) in experiment [1], in experiment [2] and in experiment [3] were 0.655, 0.501 and 0.432, respectively.
